Experimental findings from patent US20080220049A1 are described below.

B1: A4 (designed binder)
chain: EVVAATPTSLLISWRHPHFPTRYYRITYGETGGNSPVQEFTVPLQPPTATISGLKPGVDYTITGYAVTDGYNDRLLFIPISINYRT
B2: E13 (designed binder)
chain: EVVAATPTSLLISWRHPHFPTRYYRITYGETGGNSPVQEFTVPLQPPTATISGLKPGVDYTITGYAVTLEQNGRELMTPISINYRT
B3: EGE11 (Table 2 row SEQ ID NO 88) (designed binder)
chain: EVVAATPTSLLISWRHPHFPTRYYRITYGETGGNSPVQEFTVPLQPPTATISGLKPGVDYTITGYAVTMGKNDRELLTPISINYRT
B4: E22 (designed binder)
chain: EVVAATPTSLLISWRHPHFPTRYYRITYGETGGNSPVQEFTVPLQPPTATISGLKPGVDYTITGYAVTLGRNDRELLTPISINYRT
B5: A10 (designed binder)
chain: EVVAATPTSLLISWRHPHFPTRYYRITYGETGGNSPVQEFTVPLQPPTATISGLKPGVDYTITGYAVTFGWNGRELLTPISINYRT
B6: EGE9 (designed binder)
chain: EVVAATPTSLLISWRHPHFPTRYYRITYGETGGNSPVQEFTVPLQPPTATISGLKPGVDYTITGYAVTFGPNDRELLTPISINYRT
B7: F12 (designed binder)
chain: EVVAATPTSLLISWRHPHFPTRYYRITYGETGGNSPVQEFTVPLQPPTATISGLKPGVDYTITGYAVTDGRNGHELMTPISINYRT
B8: G1 (designed binder)
chain: EVVAATPTSLLISWRHPHFPTRYYRITYGETGGNSPVQEFTVPLQPPTATISGLKPGVDYTITGYAVTEGRNGRELMVPISINYRT
B9: E21 (designed binder)
chain: EVVAATPTSLLISWRHPHFPTRYYRITYGETGGNSPVQEFTVPLQPPTATISGLKPGVDYTITGYAVTWGYKDHELLIPISINYRT
B10: E15 (designed binder)
chain: EVVAATPTSLLISWRHPHFPTRYYRITYGETGGNSPVQEFTVPLQPPTATISGLKPGVDYTITGYAVTLEPNGRYLMVPISINYRT
B11: D11 (designed binder)
chain: EVVAATPTSLLISWRHPHFPTRYYRITYGETGGNSPVQEFTVPLQPPTATISGLKPGVDYTITGYAVTVERNGHKLFTPISINYRT
B12: A8 (designed binder)
chain: EVVAATPTSLLISWRHPHFPTRYYRITYGETGGNSPVQEFTVPLQPPTATISGLKPGVDYTITGYAVTDGLNGKYLFVPISINYRT
B13: EGE10 (designed binder)
chain: EVVAATPTSLLISWRHPHFPTRYYRITYGETGGNSPVQEFTVPLQPPTATISGLKPGVDYTITGYAVTMGPNDRELLTPISINYRT
B14: A9 (designed binder)
chain: EVVAATPTSLLISWRHPHFPTRYYRITYGETGGNSPVQEFTVPLQPPTATISGLKPGVDYTITGYAVTEGWNDRELFVPISINYRT
B15: F1 (designed binder)
chain: EVVAATPTSLLISWRHPHFPTRYYRITYGETGGNSPVQEFTVPLQPPTATISGLKPGVDYTITGYAVTSGRNDRELLVPISINYRT
B16: F10 (designed binder)
chain: EVVAATPTSLLISWRHPHFPTRYYRITYGETGGNSPVQEFTVPLQPPTATISGLKPGVDYTITGYAVTMAPNGRELLTPISINYRT
B17: E12 (designed binder)
chain: EVVAATPTSLLISWRHPHFPTRYYRITYGETGGNSPVQEFTVPLQPPTATISGLKPGVDYTITGYAVTFARDGHEILTPISINYRT
B18: A7 (designed binder)
chain: EVVAATPTSLLISWRHPHFPTRYYRITYGETGGNSPVQEFTVPLQPPTATISGLKPGVDYTITGYAVTDGPNNRELIVPISINYRT
B19: E10 (designed binder)
chain: EVVAATPTSLLISWRHPHFPTRYYRITYGETGGNSPVQEFTVPLQPPTATISGLKPGVDYTITGYAVTEGRNGRELFIPISINYRT

Chain of mouse vascular endothelial growth factor receptor-2 Fc chimera (Flk-1-Fc) (mouse) (P35918 20-762, change not shown): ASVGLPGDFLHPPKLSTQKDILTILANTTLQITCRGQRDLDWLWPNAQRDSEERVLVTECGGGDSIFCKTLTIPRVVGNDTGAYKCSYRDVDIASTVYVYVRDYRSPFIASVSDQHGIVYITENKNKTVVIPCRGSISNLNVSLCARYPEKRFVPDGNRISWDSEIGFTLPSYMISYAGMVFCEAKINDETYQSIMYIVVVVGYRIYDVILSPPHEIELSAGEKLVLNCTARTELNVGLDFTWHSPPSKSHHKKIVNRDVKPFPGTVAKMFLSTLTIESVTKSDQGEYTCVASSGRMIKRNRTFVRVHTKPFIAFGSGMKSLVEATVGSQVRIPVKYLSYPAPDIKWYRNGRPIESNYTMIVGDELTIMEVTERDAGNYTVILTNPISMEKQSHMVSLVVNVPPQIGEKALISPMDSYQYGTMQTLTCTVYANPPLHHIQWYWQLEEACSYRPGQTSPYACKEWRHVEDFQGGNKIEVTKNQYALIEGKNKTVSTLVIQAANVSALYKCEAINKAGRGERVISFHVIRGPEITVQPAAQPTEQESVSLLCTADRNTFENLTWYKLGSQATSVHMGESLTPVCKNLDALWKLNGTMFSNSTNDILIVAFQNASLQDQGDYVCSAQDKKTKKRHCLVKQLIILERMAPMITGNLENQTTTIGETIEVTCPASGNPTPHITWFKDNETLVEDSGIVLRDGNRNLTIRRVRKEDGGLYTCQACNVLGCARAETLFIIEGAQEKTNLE

This experiment concerns the target mouse vascular endothelial growth factor receptor-2 Fc chimera (Flk-1-Fc) (mouse) (UniProt P35918). Kind of experiment: radioactive equilibrium binding, 1 nM Flk-1-Fc.
Turning to B1, the Binding to 1 nM Flk-1, % is 2%.

As to B2, the Binding to 1 nM Flk-1, % is 1%.

Turning to B3, the Binding to 1 nM Flk-1, % amounted to 1%.

As to B4, the Binding to 1 nM Flk-1, % is 3%.

Take B5: the Binding to 1 nM Flk-1, % stood at 4%.

In the case of B6, the Binding to 1 nM Flk-1, % turned out to be 1%.

As for B7, the Binding to 1 nM Flk-1, % came to 1%.

For B8, the Binding to 1 nM Flk-1, % was 2%.

With B9, the Binding to 1 nM Flk-1, % came to 1%.

On to B10, for which the Binding to 1 nM Flk-1, % came to 2%.

Take B11: the Binding to 1 nM Flk-1, % worked out at 3%.

For the molecule B12, the Binding to 1 nM Flk-1, % amounted to 4%.

As to B13, the Binding to 1 nM Flk-1, % stood at 1%.

B14: the Binding to 1 nM Flk-1, % worked out at 4%.

Regarding B15, the Binding to 1 nM Flk-1, % worked out at 2%.

Regarding B16, the Binding to 1 nM Flk-1, % amounted to 1%.

With B17, the Binding to 1 nM Flk-1, % came to 1%.

Consider B18, for which the Binding to 1 nM Flk-1, % was determined as 2%.

In the case of B19, the Binding to 1 nM Flk-1, % was determined as 3%.
